This experiment has as its target SARS-CoV spike glycoprotein (S) (SARS-CoV) (UniProt P59594). Nature of the experiment: SPR. (SPR reads the build-up and loss of mass on a sensor chip optically.)

A word on the Kd: it is the equilibrium constant for the complex coming apart. Low readings indicate a tighter complex, high ones a looser complex.

Consider VHH-72, for which the Kd stood at 6.52 nM.

(Values after paper doi:10.1101/2021.12.20.473401.)
